Reference: patent US20120082622A1 (Janssen / Centocor, published 2012)

Biological target: T1, CCR4 endogenously expressed on CCRF-CEM cells (UniProt P51679 1-360, limits assumed)
T1 sequence (looked up): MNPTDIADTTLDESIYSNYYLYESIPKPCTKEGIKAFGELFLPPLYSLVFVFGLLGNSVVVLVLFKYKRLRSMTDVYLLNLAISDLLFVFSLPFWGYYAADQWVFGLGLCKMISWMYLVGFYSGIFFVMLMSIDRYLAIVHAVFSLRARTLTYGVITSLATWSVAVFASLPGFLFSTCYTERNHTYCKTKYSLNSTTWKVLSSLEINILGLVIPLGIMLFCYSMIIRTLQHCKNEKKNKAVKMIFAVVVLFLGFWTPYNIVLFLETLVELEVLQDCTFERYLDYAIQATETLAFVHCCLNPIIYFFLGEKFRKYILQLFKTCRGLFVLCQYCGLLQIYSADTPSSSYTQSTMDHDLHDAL
Assay: cell-based or functional assay

B1: mature Macaca fascicularis CCL17 (cynoCCL17), refolded from E. coli inclusion bodies (ligand)
chain: ARGTNVGRECCLKYFKGAIPLRKLKTWYQTSEDCSRDAIVFVTVQNKAICSDPNDKKVKKALKYLQSL
calcium flux of CCRF-CEM cells (Fluo-8 NW dye fluorescence), EC50: 0.665 ng/mL
